Data on one molecule can be found in patent publication US20200234789A1, “DESIGNED PROTEINS FOR LIGAND BINDING” (THE REGENTS OF THE UNIVERSITY OF CALIFORNIA, priority 2017, published 2020).

Holding throughout (format): physicochemical
A short description of series [1]: Circular dichroism: temperature and GnHCl induced unfolding. Conditions: at 95° C.; CD at 222 nm; 50 mM NaPi, 100 mM NaCl, pH 7.5. The procedure:
(§1) FIGS. 3A-3D. Biophysical characterization of apo- and holo-PS1. FIG. 3A: Electronic absorption and emission spectra of (CF3)4PZn/PS1 holo-protein and (CF3)4PZn in toluene solvent. […] FIG. 3B: Determination of KD by apo-PS1 titration into a buffer solution (100 mM NaCl, 50 mM NaPi, pH 7.5) of (CF3)4PZn with 1% w/v octyl-b-D-glucopyranoside. […] FIG. 3C: Circular dichroism (CD) spectra of apo- and holo-PS1 in 50 mM NaPi, 100 mM NaCl, pH 7.5 as a function of temperature. The transitions appear reversible based on the fact that the spectra are identical after cooling to room temperature. Units are in molar residue ellipticity. […] FIG. 3D: Pump-probe transient absorption spectra of (CF3)4PZn bound in the interior of holo-PS1 at 21° C. and 100° C. […] Inset exemplifies identical transient dynamics (primarily intersystem crossing from S1 to T1) at ΔAbs.=482 nm (scaled). Experimental conditions: solvent=50 mM NaPi, 100 mM NaCl, pH 7.5; excitation wavelength=600±5 nm; magic-angle polarization between pump and probe pulses; pump-probe cross-correlation of ˜250 fs.
FIG. 8. Temperature and GnHCl induced unfolding of apo-PS1. CD spectra at 222 nm of apo-PS1 as a function of temperature and denaturant (Guanidine HCl, GnHCl) concentration in 50 mM NaPi, 100 mM NaCl, pH 7.5 buffer. The midpoint for GnHCl-induced unfolding at 95° C. was approximately 4.5 M. […]

Series [2] is described as follows: Pump-probe transient absorption spectroscopy of bound (CF3)4PZn at 21 and 100° C. Conditions: non-natural porphyrin (CF3)4PZn. As to the method:
as §1, with “Experimental conditions: solvent=50 mM NaPi, 100 mM NaCl, pH 7.5; excitation wavelength=600±5 nm; magic-angle polarization between pump and probe pulses; pump-probe cross-correlation of ˜250 fs.” left out
Ultrafast transient absorption spectra were obtained using standard pump-probe methods^9 with a time resolution of approximately 200 fs. Elevated temperature experiments were performed in a custom-made temperature block of anodized aluminum, the temperature of which was controlled by heating rods and monitored by a pair of thermocouples wired to a PID through a solid-state relay. […]

Series [3] can be described thus: Size exclusion chromatography (analytical gel filtration), oligomeric state. The settings on record: 100 μM; 50 mM NaPi, 150 mM NaCl, pH 7.0; superdex 75 5/150. From the text: FIG. 7A-7B. […] FIG. 7A: Analytical ultracentrifugation. Solutions of apo- and holo-PS1 were centrifuged at speeds ranging from 25,000 r.p.m. to 45,000 r.p.m. and monitored by absorbance at 280 nm. Parameters were globally fit to the data. Single-species fitting agrees well with the data over the entire range and yields the molecular weight of apo-PS1 […] and holo-PS1 12.24±0.91 kD, which agrees well with the 12.86 kD weight of PS1. […] Partial specific volumes were estimated from SEDNTERP^15 for amino acid side chains. FIG. 7B: Analytical gel filtration analysis of apo- and holo-PS1. Detection wavelengths are labeled as the same color as their respective curves. […] The small peak near 1.05 ml elution volume in holo-PS1 is unbound (excess), aggregated porphyrin eluting in the void volume of the superdex 75 5/150 column. Samples were run at concentrations of 100 μM and 37 μM for apo and holo, respectively, in 50 mM NaPi, 150 mM NaCl, pH 7.0 buffer.
Gel filtration profiles were obtained using a Superdex 75 5/150 column on an FPLC system (GE Healthcare AKTA). […] The approximate molecular weight (MWapp) was calculated from a standard curve obtained with the GE LMW standard protein kit. […]
(In gel filtration, larger molecules generally elute earlier.)

B1: PS1: de novo designed porphyrin-binding four-helix bundle protein; designed sequence SEQ ID NO:1, expressed His-tag-cleaved sequence SEQ ID NO:2 (protein)
chain: SEFEKLRQTGDELVQAFQRLREIFDKGDDDSLEQVLEEIEELIQKHRQLFDNRQEAADTEAAKQGDQWVQLFQRFREAIDKGDKDSLEQLLEELEQALQKIRELAEKKN
Turning to B1, in series [1], the “midpoint for GnHCl-induced unfolding” value is recorded as “approximately 4.5 M”. Further, in series [2], the “temperature up to which the porphyrin is bound” value is “up to 100 °C”. Besides, the “degree of dimerization relative to the monomer peak” value in series [3] is reported as under 5%.
